Each block holds one substance with its values, some of them ahead of it.
Experiments:
[1] = biological target: OVA peptide on H-2Kb (mouse); test: SPR, BIAcore 2000; biotinylated peptide/H2-Kb/birA on a streptavidin chip; apparent affinity of the bivalent dimer; single-chain; fusion: hIL-15 with hIL-15RαSu/birA (OT1scTCR dimer)
[2] = biological target: OVA peptide on H-2Kb (mouse); test: value cited from Alam et al. for the monovalent OT1 TCRα/β heterodimer on immobilised OVA peptide/H-2Kb; not measured in this filing; soluble, other
[3] = biological target: OVA peptide on H-2Kb (mouse); test: SPR; the murine single-chain CD8α/β domain of the complex binds the same peptide-MHC, so the value is not that of the TCR alone; single-chain; fusion: hIL-15, in complex with scCD8/hIL-15RαSu/birA (OT1scTCR/scCD8 heterodimer)
[4] = biological target: OVA (aa257-264) peptide/H-2Kb complex (mouse) (UniProt P01901); test: SPR (BIAcore 2000), biotinylated pMHCI on streptavidin chip
[5] = biological target: IL-15 receptor (IL-15RβγC) on 32Dβ cells (human; mouse) (UniProt P14784); test: cell-based or functional assay
[6] = biological target: anti-human IL-15 antibody; test: ELISA, anti-human IL-15 antibody as capture and as detection; reference of the table
[7] = biological target: anti-human IL-15 antibody; test: ELISA, anti-human IL-15 antibody as capture and as detection

OVA (aa257-264) peptide/H-2Kb complex (mouse), sequence (P01901 22-305, one chain of several): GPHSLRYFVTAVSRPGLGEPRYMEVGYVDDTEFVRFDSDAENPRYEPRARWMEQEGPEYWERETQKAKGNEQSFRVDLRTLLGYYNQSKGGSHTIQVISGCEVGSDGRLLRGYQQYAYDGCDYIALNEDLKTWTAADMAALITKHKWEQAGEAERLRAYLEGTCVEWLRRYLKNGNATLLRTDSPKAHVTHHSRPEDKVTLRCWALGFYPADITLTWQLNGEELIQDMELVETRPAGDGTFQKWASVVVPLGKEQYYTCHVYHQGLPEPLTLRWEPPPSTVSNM
IL-15 receptor (IL-15RβγC) on 32Dβ cells (human; mouse), sequence (P14784 27-551, chain 1 of 2): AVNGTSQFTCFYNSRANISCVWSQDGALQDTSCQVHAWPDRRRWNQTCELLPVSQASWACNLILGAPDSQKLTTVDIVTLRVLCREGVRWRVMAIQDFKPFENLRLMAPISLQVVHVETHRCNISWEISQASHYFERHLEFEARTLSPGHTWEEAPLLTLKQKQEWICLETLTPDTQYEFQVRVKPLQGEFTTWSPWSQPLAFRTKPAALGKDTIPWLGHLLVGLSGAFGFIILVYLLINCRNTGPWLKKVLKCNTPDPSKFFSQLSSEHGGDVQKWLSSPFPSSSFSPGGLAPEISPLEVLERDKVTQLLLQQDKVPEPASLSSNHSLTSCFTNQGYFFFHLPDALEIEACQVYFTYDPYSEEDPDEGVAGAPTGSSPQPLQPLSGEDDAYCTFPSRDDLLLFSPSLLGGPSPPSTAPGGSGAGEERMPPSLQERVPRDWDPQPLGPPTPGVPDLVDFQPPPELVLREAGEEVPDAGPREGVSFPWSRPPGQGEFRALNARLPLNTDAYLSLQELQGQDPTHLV
IL-15 receptor (IL-15RβγC) on 32Dβ cells (human; mouse), sequence (P34902 23-369, chain 2 of 2, further chain): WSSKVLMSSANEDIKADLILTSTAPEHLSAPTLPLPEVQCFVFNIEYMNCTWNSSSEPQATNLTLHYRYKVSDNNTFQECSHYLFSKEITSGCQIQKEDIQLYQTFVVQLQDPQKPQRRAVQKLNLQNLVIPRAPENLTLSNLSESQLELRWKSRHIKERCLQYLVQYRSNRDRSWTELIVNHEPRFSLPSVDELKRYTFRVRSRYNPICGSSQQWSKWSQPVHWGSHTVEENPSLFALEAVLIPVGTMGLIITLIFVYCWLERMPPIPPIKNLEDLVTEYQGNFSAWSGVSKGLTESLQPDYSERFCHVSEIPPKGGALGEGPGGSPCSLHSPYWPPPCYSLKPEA

Substance: OT1scTCR
Kd [1]: 30000 nM
Kd [2]: 6000 nM
Kd [3]: 2600 nM

Substance: OT1scTCR/scCD8 heterodimer: OT1scTCR/hIL-15:scCD8/hIL-15RαSu/birA complex (from UniProt P40933 49-162; P01731 28-196; P10300 22-175; Q13261 31-95)
EC50 (read off the curve) (anti-murine CD8α mAb): 0.5 nM
Kd [4]: 2600 nM

Substance: c264scTCR dimer: c264scTCR/hIL-15:c264scTCR/hIL-15RαSu/birA complex (from UniProt P40933 49-162; Q13261 31-95)
32Dβ cell proliferation, half-maximal stimulation (EC50) [5]: 0.3 nM

Substance: c264scTCR/hIL-15 fusion protein (from UniProt P40933 49-162)
32Dβ cell proliferation, half-maximal stimulation (EC50) [5]: 0.3 nM

The next lines start with the values.

Kd [4]: 30000 nM
Substance: OT1scTCR dimer: OT1scTCR/hIL-15:OT1scTCR/hIL-15RαSu/birA complex (from UniProt P40933 49-162; Q13261 31-95)

Relative activity (%) [6]: 100%
EC50 (read off the curve) [7]: 0.2 nM
Substance: c264scTCR/huIL15N72D fusion protein

— patent US20260092097A1
